In patent publication US20100144636A1, “PEPTIDES DERIVED FROM RAS-P21 AND USES THEREFOR” (THE RESEARCH FOUNDATION OF STATE UNIVERSITY OF NEW YORK, priority 2008, published 2010):

B1: GST-pi: glutathione-S-transferase, pi isozyme, selective inhibitor of JNK-induced phosphorylation of jun (protein, UniProt P09211 2-210, looked up)
Glutathione S-transferase P: PPYTVVYFPVRGRCAALRMLLADQGQSWKEEVVTVETWQEGSLKASCLYGQLPKFQDGDLTLYQSNTILRHLGRTLGLYGKDQQEAALVDMVNDGVEDLRCKYISLIYTNYEAGKDDYVKALPGQLKPFETLLSQNQGGKTFIVGDQISFADYNLLDLLLIHEVLAPGCLDAFPLLSAYVGRLSARPKLKAFLASPEYVNLPINGNGKQ
B2: MKP-1T4: MAPK phosphatase that de-activates this kinase (protein, UniProt P28562 1-367, looked up)
Dual specificity protein …: MVMEVGTLDAGGLRALLGERAAQCLLLDCRSFFAFNAGHIAGSVNVRFSTIVRRRAKGAMGLEHIVPNAELRGRLLAGAYHAVVLLDERSAALDGAKRDGTLALAAGALCREARAAQVFFLKGGYEAFSASCPELCSKQSTPMGLSLPLSTSVPDSAESGCSSCSTPLYDQGGPVEILPFLYLGSAYHASRKDMLDALGITALINVSANCPNHFEGHYQYKSIPVEDNHKADISSWFNEAIDFIDSIKNAGGRVFVHCQAGISRSATICLAYLMRTNRVKLDEAFEFVKQRRSIISPNFSFMGQLLQFESQVLAPHCSAEAGSPAMAVLDRGTSTTTVFNFPVSIPVHSTNSALSYLQSPITTSPSC

Tests used:
[1] = test system: oncogenic (Val 12-containing) ras-p21-induced oocyte maturation; test: Oncogenic ras-p21-induced oocyte maturation (GVBD); assay type: cell-based, Xenopus laevis; details: injected/co-injected with oncogenic ras-p21 into oocytes
Description: (§1) The Applicants have synthesized both of the inventive peptides, referred to as PNC-7 and PNC-2, and assayed them for their abilities to block oncogenic ras-p21 induction of maturation of Xenopus laevis oocytes. Injection of oncogenic, but not wild-type ras-p21, into these oocytes induce oocyte maturation, i.e., completion of the second meiotic division, as measured by germinal vesicle membrane breakdown (GVBD). Insulin also induces oocyte maturation in a manner that requires activation of endogenous wild-type ras-p21.

[2] = test system: insulin-induced oocyte maturation; test: Insulin-induced oocyte maturation (activated wild-type ras-p21); assay type: cell-based, Xenopus laevis; details: oocytes induced to mature with insulin
Description: as §1

Molecule	inhibition of oncogenic ras-p21-induced oocyte maturation [1]	inhibition of insulin-induced oocyte maturation [2]
B1	complete inhibition of oocyte maturation	no effect
B2	completely blocks	considerably less effect
